Data taken from patent US20110300138A1 (published 2011).
Like-named read-outs stand apart in the source and are kept apart here.

Tests used:
[1] = molecular target: human TSH receptor (full length, wild type) expressed in CHO cells (human) (UniProt P16473); assay: cell-based or functional assay
[2] = molecular target: human TSH receptor (full length, wild type) expressed in CHO cells (human) (UniProt P16473); assay: cell-based or functional assay; remark: listed apart in the source
[3] = molecular target: human TSHR (wild type, full length) expressed in CHO cells (human) (UniProt P16473); assay: cell-based or functional assay
[4] = molecular target: human TSH receptor (full length, wild type) expressed in CHO cells (human) (UniProt P16473); assay: cell-based or functional assay; remark: listed apart in the source
[5] = molecular target: human TSHR (thyroid stimulating hormone receptor) expressed in transfected CHO cells (human) (UniProt P16473); assay: cell-based or functional assay
[6] = molecular target: human TSHR (wild type, full length) expressed in CHO cells (human) (UniProt P16473); assay: cell-based or functional assay; remark: listed apart in the source
[7] = molecular target: TSHR260-alkaline phosphatase (TSHR260-AP) (human) (UniProt P05187); assay: TSHR260-AP bridge ELISA, full length TSHR on wells; 10 µg/mL, diluted in HBD
[8] = molecular target: TSHR260-alkaline phosphatase (TSHR260-AP) (human) (UniProt P05187); assay: TSHR260-AP bridge ELISA, full length TSHR on wells; 0.1 µg/mL, diluted in HBD
[9] = molecular target: TSHR260-alkaline phosphatase (TSHR260-AP) (human) (UniProt P05187); assay: TSHR260-AP bridge ELISA, full length TSHR on wells; 0.5 µg/mL, diluted in HBD
[10] = molecular target: TSHR260-alkaline phosphatase (TSHR260-AP) (human) (UniProt P05187); assay: TSHR260-AP bridge ELISA, full length TSHR on wells; 250 µg/mL, diluted in HBD
[11] = molecular target: TSHR260-alkaline phosphatase (TSHR260-AP) (human) (UniProt P05187); assay: TSHR260-AP bridge ELISA, full length TSHR on wells; 0.01 µg/mL, diluted in HBD
[12] = molecular target: TSHR260-alkaline phosphatase (TSHR260-AP) (human) (UniProt P05187); assay: TSHR260-AP bridge ELISA, full length TSHR on wells; 0.05 µg/mL, diluted in HBD
[13] = molecular target: TSHR260-alkaline phosphatase (TSHR260-AP) (human) (UniProt P05187); assay: TSHR260-AP bridge ELISA, full length TSHR on wells; 0.1 µg/mL, diluted in assay buffer
[14] = molecular target: TSHR260-alkaline phosphatase (TSHR260-AP) (human) (UniProt P05187); assay: TSHR260-AP bridge ELISA, full length TSHR on wells; 0.01 µg/mL, diluted in assay buffer
[15] = molecular target: TSHR260-alkaline phosphatase (TSHR260-AP) (human) (UniProt P05187); assay: TSHR260-AP bridge ELISA, full length TSHR on wells; 0.05 µg/mL, diluted in assay buffer
[16] = molecular target: TSHR260-AP (human); assay: TSHR260-AP bridge ELISA (full length TSHR on wells, TSHR260-AP in solution); IgG 1 µg/mL diluted in HBD serum
[17] = molecular target: TSHR260-AP (human); assay: TSHR260-AP bridge ELISA (full length TSHR on wells, TSHR260-AP in solution); IgG 0.1 µg/mL diluted in HBD serum
[18] = molecular target: TSHR260-AP (human); assay: TSHR260-AP bridge ELISA (full length TSHR on wells, TSHR260-AP in solution); IgG 0.5 µg/mL diluted in HBD serum
[19] = molecular target: TSHR260-AP (human); assay: TSHR260-AP bridge ELISA (full length TSHR on wells, TSHR260-AP in solution); IgG 250 µg/mL diluted in HBD serum
[20] = molecular target: TSHR260-AP (human); assay: TSHR260-AP bridge ELISA (full length TSHR on wells, TSHR260-AP in solution); IgG 0.01 µg/mL diluted in HBD serum
[21] = molecular target: TSHR260-AP (human); assay: TSHR260-AP bridge ELISA (full length TSHR on wells, TSHR260-AP in solution); IgG 0.1 µg/mL diluted in assay buffer
[22] = molecular target: TSHR260-AP (human); assay: TSHR260-AP bridge ELISA (full length TSHR on wells, TSHR260-AP in solution); IgG 250 µg/mL diluted in assay buffer
[23] = molecular target: TSHR260-AP (human); assay: TSHR260-AP bridge ELISA (full length TSHR on wells, TSHR260-AP in solution); IgG 0.01 µg/mL diluted in assay buffer

5B3 IgG (antibody)
% Inhibition; T7 serum + 100 µg/mL 5B3 IgG [1]: 0% | % Inhibition; T8 serum + 100 µg/mL 5B3 IgG [1]: 10.9% | % Inhibition; T9 serum + 100 µg/mL 5B3 IgG [1]: 0% | Cyclic AMP concentration; 100 µg/mL 5B3 IgG alone [1]: 2.7 pmol/mL | Cyclic AMP concentration; HBD + 100 µg/mL 5B3 IgG [1]: 4 pmol/mL | Cyclic AMP concentration; T7 serum + 100 µg/mL 5B3 IgG [1]: 91.9 pmol/mL | Cyclic AMP concentration; T8 serum + 100 µg/mL 5B3 IgG [1]: 76.3 pmol/mL | Cyclic AMP concentration; T9 serum + 100 µg/mL 5B3 IgG [1]: 53.2 pmol/mL | % Inhibition; T10 serum + 100 µg/mL 5B3 IgG [2]: 0% | % Inhibition; T11 serum + 100 µg/mL 5B3 IgG [2]: 3.2% | % Inhibition; T12 serum + 100 µg/mL 5B3 IgG [2]: 0% | Cyclic AMP concentration; 100 µg/mL 5B3 IgG alone [2]: 2 pmol/mL | Cyclic AMP concentration; HBD + 100 µg/mL 5B3 IgG [2]: 2.4 pmol/mL | Cyclic AMP concentration; T10 serum + 100 µg/mL 5B3 IgG [2]: 59.3 pmol/mL | Cyclic AMP concentration; T11 serum + 100 µg/mL 5B3 IgG [2]: 39.7 pmol/mL | Cyclic AMP concentration; T12 serum + 100 µg/mL 5B3 IgG [2]: 43.3 pmol/mL | % Inhibition of T13 serum stimulation; 100 µg/mL 5B3 IgG [3]: 22.5% | % Inhibition of T14 serum stimulation; 100 µg/mL 5B3 IgG [3]: 24.6% | % Inhibition of T15 serum stimulation; 100 µg/mL 5B3 IgG [3]: 18.3% | Cyclic AMP concentration; 100 µg/mL 5B3 IgG alone [3]: 4.1 pmol/mL | Cyclic AMP concentration; HBD + 100 µg/mL 5B3 IgG [3]: 5.1 pmol/mL | Cyclic AMP concentration; T13 serum + 100 µg/mL 5B3 IgG [3]: 37.6 pmol/mL | Cyclic AMP concentration; T14 serum + 100 µg/mL 5B3 IgG [3]: 20.5 pmol/mL | Cyclic AMP concentration; T15 serum + 100 µg/mL 5B3 IgG [3]: 41.9 pmol/mL | % Inhibition; T1 serum + 100 µg/mL 5B3 IgG [4]: 4.9% | % Inhibition; T2 serum + 100 µg/mL 5B3 IgG [4]: 0% | % Inhibition; T3 serum + 100 µg/mL 5B3 IgG [4]: 14.4% | Cyclic AMP concentration; 100 µg/mL 5B3 IgG alone [4]: 1 pmol/mL | Cyclic AMP concentration; HBD + 100 µg/mL 5B3 IgG [4]: 2 pmol/mL | Cyclic AMP concentration; T1 serum + 100 µg/mL 5B3 IgG [4]: 94.9 pmol/mL | Cyclic AMP concentration; T2 serum + 100 µg/mL 5B3 IgG [4]: 62 pmol/mL | Cyclic AMP concentration; T3 serum + 100 µg/mL 5B3 IgG [4]: 54.2 pmol/mL | % Inhibition; 3 ng/mL M22 IgG + 10 µg/mL 5B3 IgG [5]: 0% | % Inhibition; 3 ng/mL M22 IgG + 100 µg/mL 5B3 IgG [5]: 0% | Cyclic AMP concentration; 3 ng/mL M22 IgG + 10 µg/mL 5B3 IgG [5]: 44.7 pmol/mL | Cyclic AMP concentration; 3 ng/mL M22 IgG + 100 µg/mL 5B3 IgG [5]: 51.3 pmol/mL | Cyclic AMP concentration; 100 µg/mL 5B3 IgG [5]: 2.3 pmol/mL | % Inhibition of T8 serum stimulation; 0.1 µg/mL 5B3 IgG [6]: 3% | % Inhibition of T8 serum stimulation; 1 µg/mL 5B3 IgG [6]: 2% | % Inhibition of T8 serum stimulation; 10 µg/mL 5B3 IgG [6]: 0% | % Inhibition of T8 serum stimulation; 100 µg/mL 5B3 IgG [6]: 3% | Cyclic AMP concentration; 0.1 µg/mL 5B3 IgG + T8 [6]: 50.7 pmol/mL | Cyclic AMP concentration; 1 µg/mL 5B3 IgG + T8 [6]: 51.4 pmol/mL | Cyclic AMP concentration; 10 µg/mL 5B3 IgG + T8 [6]: 56 pmol/mL | Cyclic AMP concentration; 100 µg/mL 5B3 IgG + T8 [6]: 50.5 pmol/mL | Cyclic AMP concentration; 100 µg/mL 5B3 IgG alone [6]: 2.1 pmol/mL | Mean absorbance at 405 nm (absorbance at 405 nm) [7]: -0.006 | Mean absorbance at 405 nm (absorbance at 405 nm) [8]: -0.002 | Mean absorbance at 405 nm (absorbance at 405 nm) [9]: -0.001 | Mean absorbance at 405 nm (absorbance at 405 nm) [10]: 0.012 | Mean absorbance at 405 nm (absorbance at 405 nm) [11]: 0.027 | Mean absorbance at 405 nm (absorbance at 405 nm) [12]: -0.006 | Mean absorbance at 405 nm (absorbance at 405 nm) [13]: -0.013 | Mean absorbance at 405 nm (absorbance at 405 nm) [14]: 0.012 | Mean absorbance at 405 nm (absorbance at 405 nm) [15]: -0.009 | Mean absorbance at 405 nm (absorbance at 405 nm) [16]: 0.049 | Mean absorbance at 405 nm (absorbance at 405 nm) [17]: -0.002 | Mean absorbance at 405 nm (absorbance at 405 nm) [18]: -0.001 | Mean absorbance at 405 nm (absorbance at 405 nm) [19]: 0.012 | Mean absorbance at 405 nm (absorbance at 405 nm) [20]: 0.027 | Mean absorbance at 405 nm (absorbance at 405 nm) [21]: -0.013 | Mean absorbance at 405 nm (absorbance at 405 nm) [22]: 0.018 | Mean absorbance at 405 nm (absorbance at 405 nm) [23]: 0.012
